Data as given in patent US20230074615A1.

Tests used:
[1] = target: catalytic domain of human MMP-9 (cdMMP-9) (human) (UniProt P14780); test: cell-based or functional assay
[2] = target: catalytic domain of human MMP-9 (cdMMP-9) (human) (UniProt P14780); test: biolayer interferometry, biotinylated cdMMP-9 on streptavidin biosensors, Fab in solution
[3] = target: catalytic domain of human MMP-9 (cdMMP-9) (human) (UniProt P14780); test: biolayer interferometry, biotinylated protease on streptavidin sensor, Fab in solution
[4] = target: catalytic domain of human MMP-9 (cdMMP-9) (human) (UniProt P14780); test: FRET peptide substrate inhibition assay, K1=IC50/(S/Km+1)
[5] = target: catalytic domain of human MMP-9 (cdMMP-9) (human) (UniProt P14780)
[6] = target: catalytic domain of human MMP-9 (cdMMP-9) (human) (UniProt P14780); test: inhibition of cdMMP-9 proteolytic activity, FRET peptide substrate
[7] = target: catalytic domain of human MMP-9 (cdMMP-9) (human) (UniProt P14780); test: biolayer interferometry, IgG on protein A sensor, protease in solution

Sequence of UniProt P14780 (P14780 other isoform, or with tags, fused parts or gaps limits assumed): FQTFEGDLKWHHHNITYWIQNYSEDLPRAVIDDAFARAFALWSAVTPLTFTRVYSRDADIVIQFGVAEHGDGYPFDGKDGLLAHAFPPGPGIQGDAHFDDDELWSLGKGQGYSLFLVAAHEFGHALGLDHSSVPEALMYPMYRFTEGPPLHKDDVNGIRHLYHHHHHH

Binder	degradation of type I collagen by cdMMP-9 (SDS-PAGE) [1]	koff [2]	kon [2]	Kd [3]	Ki [4]	Km of cdMMP-9 on FRET peptide substrate at 63 nM Fab L13 (without Fab: 1.3) [5]	Km of cdMMP-9 on FRET peptide substrate at 125 nM Fab L13 (without Fab: 1.3) [5]	Km of cdMMP-9 on FRET peptide substrate at 250 nM Fab L13 (without Fab: 1.3) [5]	Vmax of cdMMP-9 on FRET peptide substrate at 63 nM Fab L13 (without Fab: 1.3) [5]	Vmax of cdMMP-9 on FRET peptide substrate at 125 nM Fab L13 (without Fab: 1.3) [5]	Vmax of cdMMP-9 on FRET peptide substrate at 250 nM Fab L13 (without Fab: 1.3) [5]	IC50 [6]	Kd [7]
anti-MMP9 Fab H3 (Fab, V domains shown) VH: EVQLVESGGGLVQPGGSLRLSCAASGFNIYSSSMHWVRQAPGKGLEWVAYIYSSYGYTYYADSVKGRFTISADTSKNTAYLQMNSLRAEDTAVYYCARRFEPGLLKRNKRWISYTLCEAGYGMDYWGQGTLVTVSS VL: DIQMTQSPSSLSASVGDRVTITCRASQSVSSAVAWYQQKPGKAPKLLIYSASSLYSGVPSRFSGSRSGTDFTLTISSLQPEDFATYYCQQASHLITFGQGTKVEIKR		0.0048 s⁻¹	49000 M⁻¹ s⁻¹	98 nM	66 nM								
anti-MMP9 Fab H25 (Fab, V domains shown) VH: EVQLVESGGGLVQPGGSLRLSCAASGFNIYSSSMHWVRQAPGKGLEWVASIYSYYGYTYYADSVKGRFTISADTSKNTAYLQMNSLRAEDTAVYYCARCKLYTSYMIPVGSDSVNRCMSSYGMDYWGQGTLVTVSS VL: DIQMTQSPSSLSASVGDRVTITCRASQSVSSAVAWYQQKPGKAPKLLIYSASSLYSGVPSRFSGSRSGTDFTLTISSLQPEDFATYYCQQGGGASLITFGQGTKVEIKR		0.031 s⁻¹	69000 M⁻¹ s⁻¹	450 nM	290 nM							520 nM	

Continued, values first:

degradation of type I collagen by cdMMP-9 (SDS-PAGE) [1]	koff [2]	kon [2]	Kd [3]	Ki [4]	Km of cdMMP-9 on FRET peptide substrate at 63 nM Fab L13 (without Fab: 1.3) [5]	Km of cdMMP-9 on FRET peptide substrate at 125 nM Fab L13 (without Fab: 1.3) [5]	Km of cdMMP-9 on FRET peptide substrate at 250 nM Fab L13 (without Fab: 1.3) [5]	Vmax of cdMMP-9 on FRET peptide substrate at 63 nM Fab L13 (without Fab: 1.3) [5]	Vmax of cdMMP-9 on FRET peptide substrate at 125 nM Fab L13 (without Fab: 1.3) [5]	Vmax of cdMMP-9 on FRET peptide substrate at 250 nM Fab L13 (without Fab: 1.3) [5]	IC50 [6]	Kd [7]	Binder
4%	0.0044 s⁻¹	83000 M⁻¹ s⁻¹	120 nM	150 nM	3.3 µM	4.6 µM	5.1 µM	0.7 ΔRFU/s	0.7 ΔRFU/s	0.6 ΔRFU/s	260 nM		anti-MMP9 Fab L13 (Fab, V domains shown) VH: EVQLVESGGGLVQPGGSLRLSCAASGFNISSSYIHWVRQAPGKGLEWVASISSSSGYTSYADSVKGRFTISADTSKNTAYLQMNSLRAEDTAVYYCARKYMVFGTRMGWVEHTDFAGQGYYAMDYWGQGTLVTVSS VL: DIQMTQSPSSLSASVGDRVTITCRASQSVSSAVAWYQQKPGKAPKLLIYSASSLYSGVPSRFSGSRSGTDFTLTISSLQPEDFATYYCQQYAALITFGQGTKVEIKR
				51 nM							92 nM	71 nM	anti-MMP9 IgG H3 (antibody, V domains shown) VH: EVQLVESGGGLVQPGGSLRLSCAASGFNIYSSSMHWVRQAPGKGLEWVAYIYSSYGYTYYADSVKGRFTISADTSKNTAYLQMNSLRAEDTAVYYCARRFEPGLLKRNKRWISYTLCEAGYGMDYWGQGTLVTVSS VL: DIQMTQSPSSLSASVGDRVTITCRASQSVSSAVAWYQQKPGKAPKLLIYSASSLYSGVPSRFSGSRSGTDFTLTISSLQPEDFATYYCQQASHLITFGQGTKVEIKR
				110 nM							200 nM	53 nM	anti-MMP9 IgG L13 (antibody, V domains shown) VH: EVQLVESGGGLVQPGGSLRLSCAASGFNISSSYIHWVRQAPGKGLEWVASISSSSGYTSYADSVKGRFTISADTSKNTAYLQMNSLRAEDTAVYYCARKYMVFGTRMGWVEHTDFAGQGYYAMDYWGQGTLVTVSS VL: DIQMTQSPSSLSASVGDRVTITCRASQSVSSAVAWYQQKPGKAPKLLIYSASSLYSGVPSRFSGSRSGTDFTLTISSLQPEDFATYYCQQYAALITFGQGTKVEIKR
